Usually IC50 stands for the concentration at which inhibition is half-maximal. The term EC50 denotes the concentration giving half of the maximal effect. The Kd is a measure of binding affinity in units of concentration. Higher therefore signals a looser complex. A word on the koff: it is the first-order rate constant of dissociation. What is called kon is the second-order rate constant of association. Read a low kon as slow association.

The target in assay [1] is T1, human SIRPα v2 on CHOK1 cells (human, UniProt P78324 31-504).
T1 construct: whole, on cells; also called CHOK1-hSIRPα v2; cell surface human SIRPα v2
T1 sequence (P78324 other isoform, or with tags, fused parts or gaps limits assumed): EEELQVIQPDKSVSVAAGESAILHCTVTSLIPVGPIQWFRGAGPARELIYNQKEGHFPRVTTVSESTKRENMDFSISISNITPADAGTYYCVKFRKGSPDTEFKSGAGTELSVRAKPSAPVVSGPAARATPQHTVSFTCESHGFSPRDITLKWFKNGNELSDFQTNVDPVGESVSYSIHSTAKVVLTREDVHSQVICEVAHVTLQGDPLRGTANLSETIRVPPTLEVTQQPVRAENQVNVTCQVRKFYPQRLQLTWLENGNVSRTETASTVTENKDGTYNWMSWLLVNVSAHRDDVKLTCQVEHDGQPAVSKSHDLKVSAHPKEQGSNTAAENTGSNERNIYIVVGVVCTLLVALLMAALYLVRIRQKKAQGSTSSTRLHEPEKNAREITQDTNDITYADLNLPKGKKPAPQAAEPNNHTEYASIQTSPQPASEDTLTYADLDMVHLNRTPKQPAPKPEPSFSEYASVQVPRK
In words: competitive FACS, CHOK1 cells stably expressing human SIRPα v2; blocked ligand: mFc tagged human CD47 ECD. On the procedure:
(§1) Competitive FACS assay was also set up to further compare the blocking activity of the humanized antibodies and some known anti-SIRPα antibodies. Briefly antibody and mFc tagged human CD47 ECD recombinant protein were co-incubated with CHOK1 cells stably expressing human SIRPα v1 or human SIRPα v2. After washing, dye labeled anti-mouse Fc 2nd antibody (Sigma) was added and incubated at 37° C. for 1 hour. Fluorescence intensity was detected. Blocking ratio was determined by blockade of human CD47 ECD recombinant protein binding to SIRPα expressed CHOK1 cells.

The target of assay [2] is T2, human SIRPα v2 ECD recombinant protein (human).
T2 construct: extracellular domain; Coated on the ELISA plate
Nature of the assay: competitive ELISA, plate-coated human SIRPα v2 ECD; blocked ligand: mFc tagged human CD47 ECD. On the procedure: (§2) Competitive ELISA assay was used to determine whether the purified chimeric antibodies can block CD47 and SIRPα interaction. Briefly, antibody and mFc tagged human CD47 ECD recombinant protein were co-incubated with ELISA microplate coated human SIRPα v1 ECD or human SIRPα v2 ECD recombinant protein. The concentration of soluble ECD of CD47 is 25 nM, and the concentration of soluble ECD of SIRPα is 20 nM. After washing, HRP labeled anti-mouse Fc 2nd antibody (Sigma) was added and incubated at 37° C. for 1 hour. Then, 100 μl/well of TMB solution (Biotechnology) was added. After incubation for 15 minutes at room temperature, the reaction was stopped by the addition of 50 μl of 1N HCl. OD 450 nm was read. Blocking ratio was determined by blockade of human SIRPα ECD recombinant protein binding to ELISA microplate coated human CD47 ECD recombinant protein. All antibodies as tested can block interaction between human CD47 and different human SIRPα variants.
(In general: In an ELISA, binding on a coated surface is turned into a signal by an enzyme label.)

Assay [3] has as its target T3, mFc tagged human SIRPα v1 ECD recombinant protein (human, UniProt P78324 31-373).
T3 construct: extracellular domain; not shown: mouse Fc tag
In words: competitive ELISA; row antibody in excess in solution, coated mAb hu1H9G4. On the procedure: (§3) Competitive ELISA assay was used for epitope binning of purified chimeric antibodies. Briefly excessive competitor antibody and mFc tagged human SIRPα v1 ECD recombinant protein were co-incubated with ELISA microplate coated antibody. After washing, HRP labeled anti-mouse Fc 2nd antibody (Sigma) was added and incubated at 37° C. for 1 hour. Then, 100 μl/well of TMB solution (Biotechnology) was added. After incubation for 15 minutes at room temperature, the reaction was stopped by the addition of 50 μl of 1N HCl. OD 450 nm was read. Competition ratio was calculated. The antibodies that can compete each other for binding to SIRPα may have related binding epitopes.

Assay [4] concerns the target T4, Full length human SIRPα v1 with beta-gal fragment (ED) at its C-terminal, in K562 cells (human, UniProt P78324 31-504). Nature of the assay: cell-based or functional assay.
Assay [5] concerns the target T5, human SIRPα v1 on CHOK1 cells (human, UniProt P78324 31-504).
T5 construct: whole, on cells; also called CHOK1-hSIRPα v1; cell surface human SIRPα v1
Nature of the assay: FACS, CHOK1 cells stably expressing human SIRPα v1. From the text: (§4) Binding activity of the purified chimeric antibodies against human SIRPα variants was detected by FACS assay using CHOK1 cells or 293F cells stably expressing human SIRPα v1 and CHOK1 cells stably expressing human SIRPα v2. […] EC₅₀ and top signal calculated using GraphPad Prism9.0.

The target in assay [6] is T4, Full length human SIRPα v1 with …. Nature of the assay: cell-based or functional assay. This is another data set of the same source.
Assay [7] has as its target T1, human SIRPα v2 on CHOK1 cells. Nature of the assay: FACS, CHOK1 cells stably expressing human SIRPα v2.
Source text: as §4

In the next assay the target is T6, Human SIRPα v2 (human).
T6 construct: also called human SIRPα v2 (antigen of the Biacore assay)
In words: SPR (Biacore), 1:1 binding model. On the procedure: The humanized antibodies were characterized for binding affinity against human SIRPα v1, human SIRPα v2 using Surface Plasmon Resonance technology (Biacore system). The association and dissociation curves were fit with 1:1 binding model, and the Ka/Kd/KD values for each antibody were calculated.
Background: Surface plasmon resonance follows binding to a sensor surface in real time, without labels.

Assay [8] concerns the target T5, human SIRPα v1 on CHOK1 cells. In words: FACS, CHOK1 cells stably expressing human SIRPα v1. The source holds these as a separate data set. (In general: A flow cytometer gives signals particle by particle.)
The target of assay [9] is T1, human SIRPα v2 on CHOK1 cells. Nature of the assay: FACS, CHOK1 cells stably expressing human SIRPα v2. The source holds these as a separate data set.
Assay [10] deals with T3, mFc tagged human SIRPα v1 ECD …. Nature of the assay: competitive ELISA; row antibody in excess in solution, coated mAb 025c. On the procedure: as §3
Assay [11] concerns the target T7, human SIRPα v1 ECD recombinant protein (human, UniProt P78324 31-373).
T7 construct: extracellular domain; Coated on the ELISA plate
Nature of the assay: competitive ELISA, plate-coated human SIRPα v1 ECD; blocked ligand: mFc tagged human CD47 ECD. On the procedure: as §2
(§5) The humanized antibodies were tested for the ability to block CD47 and SIRPα interaction with competitive ELISA assay (refer to methods described above).

Assay [12] addresses T7, human SIRPα v1 ECD recombinant protein. Described as above. On the procedure: as §2, with “ECD” for “ECD or human SIRPα v2 ECD”, “protein.” for “protein. The concentration of soluble ECD of CD47 is 25 nM, and the concentration of soluble ECD of SIRPα is 20 nM.”, “protein.” for “protein. All antibodies as tested can block interaction between human CD47 and different human SIRPα variants.”
This is another data set of the same source.

Assay [13] concerns the target T2, human SIRPα v2 ECD recombinant protein. In words: competitive ELISA, plate-coated human SIRPα v2 ECD; blocked ligand: mFc tagged human CD47 ECD. On the procedure: as §2, §5
The source holds these as a separate data set.

Assay [14] addresses T5, human SIRPα v1 on CHOK1 cells. Nature of the assay: competitive FACS, CHOK1 cells stably expressing human SIRPα v1; blocked ligand: mFc tagged human CD47 ECD. On the procedure:
as §1

Assay [15] addresses T3, mFc tagged human SIRPα v1 ECD …. Nature of the assay: competitive ELISA; row antibody in excess in solution, coated mAb 042c. On the procedure:
as §3

Assay [16] addresses T7, human SIRPα v1 ECD recombinant protein. In words: competitive ELISA, plate-coated human SIRPα v1 ECD; blocked ligand: mFc tagged human CD47 ECD. On the procedure: as §2
The source holds these as a separate data set.

The target of assay [17] is T8, His tagged human SIRPα v1 ECD (human, UniProt P78324 31-373).
T8 construct: extracellular domain; not shown: His tag
T8 sequence (P78324 31-373): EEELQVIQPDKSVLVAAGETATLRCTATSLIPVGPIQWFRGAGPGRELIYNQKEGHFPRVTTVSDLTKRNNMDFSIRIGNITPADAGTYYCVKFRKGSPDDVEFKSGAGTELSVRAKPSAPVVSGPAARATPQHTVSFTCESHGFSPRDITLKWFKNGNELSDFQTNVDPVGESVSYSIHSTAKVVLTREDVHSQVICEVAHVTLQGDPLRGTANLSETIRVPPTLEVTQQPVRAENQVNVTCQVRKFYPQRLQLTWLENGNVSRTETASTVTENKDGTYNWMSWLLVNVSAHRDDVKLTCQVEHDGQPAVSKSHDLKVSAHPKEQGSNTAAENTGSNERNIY
In words: HDX-MS.

Where two headings read alike, the source gives them in different places.

T5 sequence (P78324 31-504): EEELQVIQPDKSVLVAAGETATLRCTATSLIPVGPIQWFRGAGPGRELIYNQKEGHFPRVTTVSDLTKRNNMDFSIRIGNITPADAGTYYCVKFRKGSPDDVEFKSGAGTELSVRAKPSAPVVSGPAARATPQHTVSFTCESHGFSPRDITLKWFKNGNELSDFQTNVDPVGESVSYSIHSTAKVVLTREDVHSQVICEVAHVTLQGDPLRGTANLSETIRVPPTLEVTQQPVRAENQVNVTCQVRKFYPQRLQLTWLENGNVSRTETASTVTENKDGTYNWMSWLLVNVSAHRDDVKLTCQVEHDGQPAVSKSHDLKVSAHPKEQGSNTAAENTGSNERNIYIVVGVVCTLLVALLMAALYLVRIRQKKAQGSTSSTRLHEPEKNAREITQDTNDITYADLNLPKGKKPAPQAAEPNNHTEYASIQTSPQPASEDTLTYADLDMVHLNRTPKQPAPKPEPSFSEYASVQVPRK
T4 sequence (P78324 31-504): as above
T3 sequence (P78324 31-373): as the sequence (P78324 31-373) above
T7 sequence (P78324 31-373): as above

B1: Anti-SIRPα antibody C25 (antibody, V domains shown)
VH: EVQLQQSGAELVKPGASVKLSCTASGFNIKDYYMHWVKQRTEQGLEWIGRIDPEDGETKYAPKFQGKATITADTSSNTAYLQLSSLTSEDTAVYYCDRGLAYWGQGTLVTVSA
VL: QIVLTQSPAIMSASPGEKVTLTCSASSSVSSSYLYWYQQKPGSSPKLWIYSTSNLASGVPARFSGSGSGTSYSLTISSMEAEDAASYFCHQWSSYPYTFGGGTKLEIK
notes: Mouse variable regions; also called 025c; 025
Regarding B1, the half-inhibitory concentration (IC50) was found to be 0.63 nM in assay [1]; 2.21 nM in [2]; 2.03 nM in assay [11]; 1.86 nM in [13]; 0.4 nM in [14]; 2.12 nM in assay [16]. The TOP blocking in assay [1] was found to be 99.7%; in assay [2], 96.5%; in [11] it was 97.5%; in assay [13], 98.6%; in [14] it was 97.6%; in assay [16], 96.5%. For the same molecule, the “% Competition” value was 15.3% in [3], 93.5% in [10] and 19.1% in [15]. Besides, the results for the “IC50 (SHP-1 recruitment blocking)” value in assay [4] and in assay [6] were 0.28 nM and 0.08 nM, respectively. Also, the “TOP blocking (SHP-1 recruitment)” value amounted to 84.5% in [4] and 87% in [6]. Further, the EC50 in assay [5] is 1.49 nM; in [7], 1.34 nM; in assay [8], 1.22 nM; in assay [9], 0.99 nM. Moreover, the “TOP MFI” value in [5] is 77600 MFI; in assay [7], 51600 MFI; in assay [8], 64700 MFI; in assay [9], 53000 MFI. Further, the equilibrium dissociation constant (Kd) in the assay with Human SIRPα v2 was 1.69 nM. Further, the koff with Human SIRPα v2 turned out to be 0.00254 s⁻¹. In the assay with Human SIRPα v2, this molecule showed an association rate constant (kon) of 1.51e+06 M⁻¹ s⁻¹. Further, the “IC50 (read off the curve)” value in assay [12] was around 2 nM.

B2: Reference anti-SIRPα antibody HEFLB (antibody, human IgG4, V domains shown)
VH: EVQLVQSGAEVKKPGESLRISCKASGYSFTSYWVHWVRQMPGKGLEWMGNIDPSDSDTHYSPSFQGHVTLSVDKSISTAYLQLSSLKASDTAMYYCVRGGTGTLAYFAYWGQGTLVTVSS
VL: DVVMTQSPLSLPVTLGQPASISCRSSQSLVHSYGNTYLYWFQQRPGQSPRLLIYRVSNRFSGVPDRFSGSGSGTDFTLKISRVEAEDVGVYYCFQGTHVPYTFGGGTKVEIK
As to B2, in assay [17], the binding result is “binds”.

The values above are taken from patent US20240336686A1 (ELPISCIENCE SUZHOU BIOPHARMA, published 2024).
